The first assay addresses HLA-DR2 (DRA1*0101/DRB1*1501) molecules, detergent-solubilized, purified from S2 cells (human). The assay can be described thus: peptide binding inhibition assay.
In general, IC50 refers to the point on the concentration scale where inhibition reaches its midpoint. Lower therefore signals greater potency in that assay. With human PLP peptide PLP 40–60, the IC50 is 200 nM. Still for that read-out and setting: the same measure for “HLA-DQw6 peptide corresponding to residues 43–58”: 70 nM; for human PLP peptide PLP 95–116: 1480 nM.

For another assay the target is unchanged. The assay can be described thus: competition peptide-binding assay.
Take MBP 85–99 peptide: the IC50 is 5 nM. Substance MBP 85–99 analogue 89 (V→A) (peptide) came in with an IC50 of 50 nM. On the same count and under the same terms, the same measure for MBP 85–99 analogue 95 (I→A) (peptide): 4 nM; for MBP 85–99 analogue 98 (P→A) (peptide): 5 nM.

MBP 85–99 analogue 97 (T→A) (peptide) displayed a concentration for half-maximal inhibition (IC50) of 4 nM. Same read-out and setting: the same measure for MBP 85–99 analogue 90 (H→A) (peptide): 10 nM. Consider MBP 85–99 analogue 86 (N→A) (peptide), for which the half-inhibitory concentration (IC50) came to 7 nM. Regarding MBP 85–99 analogue 99 (R→A) (peptide), the IC50 was found to be 5 nM. As to MBP 85–99 analogue 94 (N→A) (peptide), the IC50 was 4 nM. Take MBP 88–99 truncated peptide: the IC50 was found to be 30 nM. The same measure, in the same setting: the same measure for “MBP 86–99 truncated peptide (row label printed as (85–99))”: 3 nM. Regarding MBP 85–98 truncated peptide, the half-inhibitory concentration (IC50) is 4 nM. With MBP 85–97 truncated peptide, the concentration for half-maximal inhibition (IC50) worked out at 15 nM.

For MBP 85–99 analogue 87 (P→A) (peptide), the IC50 turned out to be 10 nM. Turning to MBP 87–99 truncated peptide, the IC50 came out at 5 nM. Compared with the last substance, the IC50 is about 2-fold lower. Still for that read-out and setting: then MBP 85–96 truncated peptide, with 20 nM.

In the case of MBP 85–99 analogue 96 (V→A) (peptide), the concentration for half-maximal inhibition (IC50) was determined as 4 nM. Still for that read-out and setting: then MBP 85–99 analogue 93 (K→A) (peptide), with 4 nM; and MBP 85–99 analogue 92 (F→Y) (peptide), with 12 nM; and MBP 85–99 analogue 91 (F→A) (peptide), with 10 nM. For MBP 85–99 analogue 85 (E→A) (peptide), the IC50 is 7 nM. The same measure, in the same setting: then MBP 85–99 analogue 88 (V→A) (peptide), with 10 nM.

(Values after publication PMC2193136.)
